Assay results taken from US20140271478A1 (University of California, published 2014).

Assays:
[1] = biological target: T1, human integrin αβ8 (αvβ8) expressed on cells (human, UniProt P06756 31-1048); assay: cell staining of β8 amino acid swap constructs (175-180)
T1 construct: whole, on cells; β8 transfected into or endogenous on cells, unfixed or formalin fixed; also called human integrin β8; ITGB8

[2] = biological target: T2, human integrin β8 swap construct KKMAFF (SEQ ID NO:133) (human, UniProt P26012 43-769); assay: as above
T2 sequence: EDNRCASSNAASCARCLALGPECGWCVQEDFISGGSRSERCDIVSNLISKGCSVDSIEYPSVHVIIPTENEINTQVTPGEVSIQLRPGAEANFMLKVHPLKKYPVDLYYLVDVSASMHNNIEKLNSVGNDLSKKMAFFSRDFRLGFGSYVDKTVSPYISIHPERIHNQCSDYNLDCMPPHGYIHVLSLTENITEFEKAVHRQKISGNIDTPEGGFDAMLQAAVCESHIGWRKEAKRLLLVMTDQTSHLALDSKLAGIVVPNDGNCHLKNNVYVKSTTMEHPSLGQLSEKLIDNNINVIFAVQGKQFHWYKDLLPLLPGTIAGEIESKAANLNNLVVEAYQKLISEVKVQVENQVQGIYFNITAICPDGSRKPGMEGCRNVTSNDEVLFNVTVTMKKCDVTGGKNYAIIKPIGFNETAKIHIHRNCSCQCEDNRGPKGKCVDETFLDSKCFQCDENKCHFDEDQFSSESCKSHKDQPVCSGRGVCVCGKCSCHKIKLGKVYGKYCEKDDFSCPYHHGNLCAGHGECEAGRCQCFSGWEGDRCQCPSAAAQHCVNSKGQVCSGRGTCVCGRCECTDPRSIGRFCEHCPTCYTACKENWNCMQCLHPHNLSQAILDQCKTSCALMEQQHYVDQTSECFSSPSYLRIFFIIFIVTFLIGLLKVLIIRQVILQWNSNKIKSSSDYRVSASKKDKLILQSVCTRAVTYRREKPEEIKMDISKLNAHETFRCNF

mouse integrin β8 [3] = biological target: T3, mouse integrin β8 (mouse, UniProt Q0VBD0 22-767); assay: as above
T3 construct: whole, on cells; also called mouse β8; itgb8
T3 sequence (looked up): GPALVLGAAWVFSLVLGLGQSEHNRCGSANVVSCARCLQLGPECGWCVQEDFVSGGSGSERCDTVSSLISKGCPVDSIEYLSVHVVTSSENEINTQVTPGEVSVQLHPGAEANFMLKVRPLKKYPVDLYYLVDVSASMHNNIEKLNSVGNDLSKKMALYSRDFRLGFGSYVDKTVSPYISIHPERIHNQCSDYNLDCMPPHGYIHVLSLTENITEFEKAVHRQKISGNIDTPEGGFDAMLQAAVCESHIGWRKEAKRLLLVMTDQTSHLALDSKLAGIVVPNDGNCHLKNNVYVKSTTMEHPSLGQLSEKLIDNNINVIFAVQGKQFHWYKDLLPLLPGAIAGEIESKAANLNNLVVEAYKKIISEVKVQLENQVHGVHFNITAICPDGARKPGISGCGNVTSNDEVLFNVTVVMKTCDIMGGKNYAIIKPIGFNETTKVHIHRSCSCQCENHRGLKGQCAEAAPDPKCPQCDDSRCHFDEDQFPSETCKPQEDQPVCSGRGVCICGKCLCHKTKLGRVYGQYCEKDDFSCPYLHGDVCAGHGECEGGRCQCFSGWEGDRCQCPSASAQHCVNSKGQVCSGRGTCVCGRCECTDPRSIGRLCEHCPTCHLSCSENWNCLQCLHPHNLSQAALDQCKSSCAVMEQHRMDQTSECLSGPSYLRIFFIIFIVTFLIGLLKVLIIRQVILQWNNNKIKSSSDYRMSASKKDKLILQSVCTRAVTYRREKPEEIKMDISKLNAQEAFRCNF

[4] = biological target: T4, human integrin β8 swap construct KKMALF (SEQ ID NO:132) (human, UniProt P26012 43-769); assay: as above
T4 sequence: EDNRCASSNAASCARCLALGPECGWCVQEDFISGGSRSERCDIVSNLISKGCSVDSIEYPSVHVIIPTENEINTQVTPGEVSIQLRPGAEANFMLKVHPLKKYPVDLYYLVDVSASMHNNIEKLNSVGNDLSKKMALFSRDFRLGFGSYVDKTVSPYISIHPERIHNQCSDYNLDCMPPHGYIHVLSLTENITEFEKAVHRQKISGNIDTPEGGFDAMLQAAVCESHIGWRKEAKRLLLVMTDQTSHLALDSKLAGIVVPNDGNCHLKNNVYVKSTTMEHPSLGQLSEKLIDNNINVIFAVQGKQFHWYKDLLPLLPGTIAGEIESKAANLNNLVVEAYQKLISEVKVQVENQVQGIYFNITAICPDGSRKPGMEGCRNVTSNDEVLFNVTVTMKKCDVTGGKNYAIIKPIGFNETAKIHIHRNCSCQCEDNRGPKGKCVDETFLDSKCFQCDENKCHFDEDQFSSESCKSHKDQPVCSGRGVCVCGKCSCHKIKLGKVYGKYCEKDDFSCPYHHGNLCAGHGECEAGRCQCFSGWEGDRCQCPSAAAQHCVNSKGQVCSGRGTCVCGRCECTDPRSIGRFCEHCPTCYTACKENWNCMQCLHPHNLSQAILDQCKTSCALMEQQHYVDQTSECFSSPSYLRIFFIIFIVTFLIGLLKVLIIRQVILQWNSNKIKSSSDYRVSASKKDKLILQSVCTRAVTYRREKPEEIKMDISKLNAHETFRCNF

mouse integrin β8 [5] = biological target: T3, mouse integrin β8; assay: cell surface staining, flow cytometry

T1 sequence (P06756 31-1048): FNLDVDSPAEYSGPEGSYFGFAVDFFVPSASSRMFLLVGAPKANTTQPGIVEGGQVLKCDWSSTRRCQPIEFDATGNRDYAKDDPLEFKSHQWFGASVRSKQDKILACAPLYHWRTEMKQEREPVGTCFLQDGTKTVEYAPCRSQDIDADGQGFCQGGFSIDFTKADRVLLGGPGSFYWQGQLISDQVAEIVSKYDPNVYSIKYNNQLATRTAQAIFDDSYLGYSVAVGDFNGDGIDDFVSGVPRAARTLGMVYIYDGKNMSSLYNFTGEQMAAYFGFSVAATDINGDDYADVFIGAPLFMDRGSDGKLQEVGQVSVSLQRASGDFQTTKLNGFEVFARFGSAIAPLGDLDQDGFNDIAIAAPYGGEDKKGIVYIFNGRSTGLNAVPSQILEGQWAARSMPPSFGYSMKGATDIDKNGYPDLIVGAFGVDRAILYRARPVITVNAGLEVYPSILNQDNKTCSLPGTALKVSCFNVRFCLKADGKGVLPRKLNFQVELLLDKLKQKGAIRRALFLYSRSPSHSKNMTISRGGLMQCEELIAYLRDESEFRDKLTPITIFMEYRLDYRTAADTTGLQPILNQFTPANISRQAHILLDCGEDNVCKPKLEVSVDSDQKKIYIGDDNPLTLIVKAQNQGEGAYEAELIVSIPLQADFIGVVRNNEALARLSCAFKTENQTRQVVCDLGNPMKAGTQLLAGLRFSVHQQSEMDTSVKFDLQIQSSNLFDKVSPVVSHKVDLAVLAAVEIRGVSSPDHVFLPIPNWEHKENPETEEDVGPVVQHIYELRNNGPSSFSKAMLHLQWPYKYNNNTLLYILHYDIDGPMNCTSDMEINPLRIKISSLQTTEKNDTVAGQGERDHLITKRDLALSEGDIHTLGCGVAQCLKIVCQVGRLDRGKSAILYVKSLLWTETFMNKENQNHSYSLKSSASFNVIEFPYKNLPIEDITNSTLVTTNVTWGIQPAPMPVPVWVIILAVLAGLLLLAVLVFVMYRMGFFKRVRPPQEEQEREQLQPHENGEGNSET

Row | Binder | % positive [1] [%] | % positive [2] [%] | % positive (mouse integrin β8 [3]) [%] | % positive [4] [%] | binding result (mouse integrin β8 [5])
1 | 37E1B5 antibody (antibody, V domains shown) VH: EVQLVESGGGLVQPGGSLNLSCAVSGFVFSRYWMSWVRQAPGKGLEWIGEINPDSSTINYTSSLKDKFIISRDNAKNTLYLQMNKVRSEDTALYYCACLITTEDYWGQGTSVTVSS VL: QIVLTQSPSSMYASLGERVTIPCKASQDINSYLSWFQQKPGKSPKTLIYYANRLVDGVPSRFSGSGSGQDYSLTISSLEYEDMGIYYCLQYDEFPYTFGGGTKLEIK | 108 | 116 | 0 | 31 | –
2 | 14E5 antibody (antibody, V domains shown, Mouse hybridoma antibody; also called hybridoma clone 14E5) VH: EVQLQQSGAELMKPGASVKISCKATGYTFSTYWIEWIKQRPGHGLEWIGHILPGSVITNYNEKFKGKAAITADTSSNTSYMQLSSLTSEDSAVYYCARWGWDSYWGQGTLVTVSS VL: DIEMTQSPSSLSASLGDRVTISCSTSQDISSSLNWYQQKPDGTVTLLIYYTSNLHSGVPSRFSGSGSGTDYSLTISNLEPEDIATYYCQQYSKLPYTFGGGTKLEIKR | 112 | 9 | 0 | 1 | no binding
3 | 11E8 antibody (antibody, V domains shown, Mouse hybridoma antibody) VH: EVQLQQSGPELMKTGASVKISCKATGYTFSSYWIEWVKQRPGHGLEWIGDILPGSGTTNYNEKFKGRATVTADRSSNTAYMQLSSLTYGDSAVYYCATWGWDTYWDQGTSVTVSS VL: DIVMTQSPSSLSASLGDRVTISCSASQGISNYLNWYQQKPDGTVKLLIYYTSSLHSGVPSRFSGSGSGTDYSLTISNLEPEDIATYYCQQYSNLPYTFGGGTKLEIKR | 97 | 115 | 0 | 3 | no binding
